Data taken from publication PMC5765332, “Evaluation of the Possible Utilization of ^68Ga-DOTATOC in Diagnosis of Adenocarcinoma Breast Cancer” (Asia Oceania Journal of Nuclear Medicine and Biology, 2018).

What was measured:
[1] = tested on: BALB/c mice with adenocarcinoma breast cancer; test: in vivo; conditions: mouse, iv
Experimental: (§1) A few BALB/c mice that previously injected with spontaneous Murine Mammary Adenocarcinoma Cells (MMAC) which has been histopathologically approved for invasive ductal carcinoma, grade II/III, ([18]) were provided from Pasteur Institute, Tehran, Iran. These mice breast tumor model were used for development of the tumor allograft in other healthy Balb/c mice. For this purpose, the tumor allograft development was performed according to the previously reported procedure ([19]). Adenocarcinoma breast tumors of the mice were brought out and divided to 2–3 mm^3 segments. These segments were implanted percutaneously in the right side of the flank of inbred female BALB/c mice (16–25 g, 6–8 weeks old, Pasteur Institute, Tehran, Iran). 24-31 days post implantation, the tumor volume reached 70–80 mm^3. 100 μL of the radiolabeled complex with approximately 5.55 MBq radioactivity was injected intravenously into the BALB/c mice with adenocarcinoma breast cancer through their tail vein. The total amount of radioactivity injected into each animal was measured by counting the 1-mL syringe before and after injection in a dose calibrator with the fixed geometry. Biodistribution of the complex among tissues was determined by sacrificing the BALB/c mice at each selected time (15, 30 and 60 m) after injection using the animal care protocols. Blood samples were rapidly taken after scarification. The tissues (heart, kidneys, spleen, stomach, intestine, lung, liver, skin, bone, muscle, adrenal, pancreas and tumor) were weighed and rinsed with normal saline and their activities were determined with a p-type coaxial HPGe detector coupled with a multichannel analyzer. The percentage of injected dose per gram (%ID/g) for different organs was calculated by dividing the activity amount of each tissue (A) to the decay-corrected injected activity and the mass of each organ. Four […] were considered for each time interval. All values were expressed as mean ± standard deviation (Mean±SD) and the data were compared using Student’s T-test. P values of < 0.05 were considered statistically significant.

in vivo [2] = test: in vivo; parameters: species or system BALB/c mice; conditions: female, BALB/c, mouse, iv, 5.55 MBq, total radioactivity
Experimental: as §1

in vivo [3] = test: in vivo; parameters: species or system BALB/c mice; conditions: female, BALB/c, mouse, iv, 5.55 MBq, total radioactivity; remark: listed apart in the source
Experimental: A few BALB/c mice that previously injected with spontaneous Murine Mammary Adenocarcinoma Cells (MMAC) which has been histopathologically approved for invasive ductal carcinoma, grade II/III, ([18]) were provided from Pasteur Institute, Tehran, Iran. These mice breast tumor model were used for development of the tumor allograft in other healthy Balb/c mice. For this purpose, the tumor allograft development was performed according to the previously reported procedure ([19]). Adenocarcinoma breast tumors of the mice were brought out and divided to 2–3 mm^3 segments. These segments were implanted percutaneously in the right side of the flank of inbred female BALB/c mice (16–25 g, 6–8 weeks old, Pasteur Institute, Tehran, Iran). 24-31 days post implantation, the tumor volume reached 70–80 mm^3. 5.55 MBq of final ^68Ga-DOTATOC solution was injected intravenously into the mice through their tail veins. Static PET images were captured for 10 min with three sets of emission images starting 30, 60 and 120 min post injection. In addition, PET emission scans were preceded by CT scans performed for anatomical reference and attenuation correction (spatial resolution 1.25 mm, 80 kV, 150 mAs) with a total CT scanning time of 20 s. Reconstruction was performed using the iterative algorithm with attenuation correction. The reconstruction settings were 4 iterations and 21 subsets to a 256×256 matrix, with a post-filtering of 2 mm. Transmission data were reconstructed within a matrix of equal size by means of filtered back-projection, yielding a co-registered image set. The reconstructed emission images were reformatted into coronal, sagittal and maximum intensity projection (MIP) image sets. Maximum, average and minimum standardized uptake values (SUV) for the observable organs in the images were calculated based on the region of interest (ROI) and according to Eq. 1: where C is the tissue radioactivity concentration (kBq/mL), I is the decay-corrected amount of injected radiolabeled complex [kBq], and w is the weight (g).

C[C@@H](O)[C@@H]1NC(=O)[C@H](CCCCN)NC(=O)[C@@H](Cc2c[nH]c3ccccc23)NC(=O)[C@H](Cc2ccc(O)cc2)NC(=O)[C@@H](NC(=O)[C@@H](Cc2ccccc2)NC(=O)CN2CCN(CC(=O)O)CCN(CC(=O)O)CCN(CC(=O)O)CC2)CSSC[C@@H](C(=O)N[C@H](CO)[C@@H](C)O)NC1=O [^68Ga-DOTATOC, metal not drawn]
blood clearance (in words) [1]: fast blood clearance
tissue to tissue ratio at 0.25 h (in vivo [2]; Tumor/blood ratio): 2.38
tissue to tissue ratio at 0.5 h (in vivo [2]; Tumor/blood ratio): 3.37
tissue to tissue ratio at 1 h (in vivo [2]; Tumor/blood ratio): 9.92
tissue to tissue ratio at 0.25 h (in vivo [2]; Tumor/muscle ratio): 18.7
tissue to tissue ratio at 0.5 h (in vivo [2]; Tumor/muscle ratio): 20.8
tissue to tissue ratio at 1 h (in vivo [2]; Tumor/muscle ratio): 19.8
SUV at 0.5 h (in vivo [3]): 0.66 SUV
SUV at 1 h (in vivo [3]): 0.28 SUV
SUV at 2 h (in vivo [3]): 0.18 SUV
